Experimental data as given in paper PMC7093966.

Molecular target: FITC-Aβ42 (UniProt P05067)
Assay: solid-phase fluorescence binding assay (FITC-peptide on coated plate); black 96-well plates coated with 50 μg/mL rat-tail collagen-I or 10% BSA; 1 μM FITC-Aβ42 in RPMI with or without 200 μg/mL HDL (total, apoE-depleted or apoE-enriched) or BSA; 24 h at 37 °C, 5% CO2; PBS washes; excitation 490 nm, emission 520 nm

Sequence of FITC-Aβ42 (P05067 672-713): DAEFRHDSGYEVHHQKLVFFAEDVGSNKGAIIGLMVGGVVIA
Sequence of High density lipoprotein (HDL), density 1.063-1.21 g/mL (P02649 whole entry, looked up): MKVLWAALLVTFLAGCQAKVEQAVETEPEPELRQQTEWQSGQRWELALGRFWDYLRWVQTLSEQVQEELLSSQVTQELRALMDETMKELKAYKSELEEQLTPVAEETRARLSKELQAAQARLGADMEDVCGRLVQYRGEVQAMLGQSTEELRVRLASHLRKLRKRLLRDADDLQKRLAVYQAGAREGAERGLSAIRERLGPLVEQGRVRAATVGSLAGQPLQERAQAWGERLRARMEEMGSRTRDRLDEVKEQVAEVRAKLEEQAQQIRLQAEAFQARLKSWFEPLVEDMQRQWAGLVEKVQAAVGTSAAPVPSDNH
Sequence of High density lipoprotein (HDL), density 1.063-1.21 g/mL (P02652 whole entry, looked up): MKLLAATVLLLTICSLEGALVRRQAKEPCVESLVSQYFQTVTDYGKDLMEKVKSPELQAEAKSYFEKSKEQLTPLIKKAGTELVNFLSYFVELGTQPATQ
Sequence of High density lipoprotein (HDL), density 1.063-1.21 g/mL (P02647 whole entry, looked up): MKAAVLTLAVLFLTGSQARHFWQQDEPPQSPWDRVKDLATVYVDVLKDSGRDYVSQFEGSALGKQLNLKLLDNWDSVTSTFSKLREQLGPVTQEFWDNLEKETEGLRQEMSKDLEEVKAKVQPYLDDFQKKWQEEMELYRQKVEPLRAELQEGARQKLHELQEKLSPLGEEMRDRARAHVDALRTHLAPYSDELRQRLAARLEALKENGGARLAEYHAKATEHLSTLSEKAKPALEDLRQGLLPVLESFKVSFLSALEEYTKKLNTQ

For “High density lipoprotein (HDL), density 1.063-1.21 g/mL (from UniProt P02647 19-267; P02652 19-100; P02649 19-317) (complex)”, the fold reduction of Aβ42 binding to BSA was 11.8 fold and the fold reduction of Aβ42 binding to collagen-I was 7 fold.
